# Source: the supplement of paper PMC10567573
# B1: KCNK9 (parent)
# chain: DVPDLQSVCSCTCYRSQDYGGRSV
# Variants of: B1
# Test: protein stability index of a GFP-peptide fusion (GPS, HEK-293T) (PSI 1-6); higher = more stable
# Conditions: c terminus: a fixed tail appended
# 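Further: lentivirally expressed fusions sorted by FACS into six bins by GFP to DsRed ratio, PSI derived from sequencing read proportions per bin multiplied by bin number.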
row,Variant,protein stability index
1,DVPDLQSVCSCTCYRSQDYDGRSV,2.88
2,DVPDLQSVCSCTCYRSQDYKGRSV,2.37
3,DVPDLQSVCSCTCYRSQDYVGRSV,1.2
4,DVPDLQSVCSCTCYRSQDYNGRSV,2.03
5,DVPDLQSVCSCTCYRSQDYTGRSV,1.87
6,DVPDLQSVCSCTCYRSQDYIGRSV,2.15
7,DVPDLQSVCSCTCYRSQDYQGRSV,1.94
8,DVPDLQSVCSCTCYRSQDYCGRSV,2.26
9,DVPDLQSVCSCTCYRSQDYAGRSV,2.24
10,DVPDLQSVCSCTCYRSQDYSGRSV,2.07
11,DVPDLQSVCSCTCYRSQDYLGRSV,1.67
12,DVPDLQSVCSCTCYRSQDYYGRSV,2.8
13,DVPDLQSVCSCTCYRSQDYFGRSV,1.35
14,DVPDLQSVCSCTCYRSQDYEGRSV,1.97
15,DVPDLQSVCSCTCYRSQDYPGRSV,2.03
16,DVPDLQSVCSCTCYRSQDYHGRSV,2.88
17,DVPDLQSVCSCTCYRSSDYGGRSV,2.41
18,DVPDLQSVCSCTCYRSWDYGGRSV,2.44
19,DVPDLQSVCSCTCYRSTDYGGRSV,2.39
20,DVPDLQSVCSCTCYRSQDSGGRSV,1.81
21,DVPDLQSVCSCTCYRSQDIGGRSV,2.18
22,DVPDLQSVCSCTCYRSQDVGGRSV,1.66
23,DVPDLQSVCSCTCYRSQDEGGRSV,2.02
24,DVPDLQSVCSCTCYRSQDQGGRSV,2.44

row,Variant,protein stability index
1,DVPDLQSVCSCTCYRSQDHGGRSV,2.27
2,DVPDLQSVCSCTCYRSQDPGGRSV,1.86
3,DVPDLQSVCSCTCYRSQDKGGRSV,2.1
4,DVPDLQSVCSCTCYRSQDNGGRSV,1.71
5,DVPDLQSVCSCTCYRSQDCGGRSV,1.88
6,DVPDLQSVCSCTCYRSQDAGGRSV,1.88
7,DVPDLQSVCSCTCYRSQDFGGRSV,2.25
8,DVPDLQSVCSCTCYRSQDMGGRSV,1.83
9,DVPDLQSVCSCTCYRSQDDGGRSV,2.41
10,DVPDLQSVCSCTCYRSQDTGGRSV,2.64
11,DVPDLQSVCSCTCYRSQDRGGRSV,2.08
12,DVPDLQSVCSCTCYRSQDGGGRSV,1.58
13,DVPDLQSVCSCTCYRSQDYGGCSV,2.38
14,DVPDLQSVCSCTCYRSQDYGGTSV,1.89
15,DVPDLQSVCSCTCYRSQDYGGASV,1.84
16,DVPDLQSVCSCTCYRSQDYGGSSV,2.2
17,DVPDLQSVCSCTCYRSQDYGGISV,1.93
18,DVPDLQSVCSCTCYRSQDYGGQSV,3.22
19,DVPDLQSVCSCTCYRSQDYGGVSV,2.82
20,DVPDLQSVCSCTCYRSQDYGGNSV,2.6
21,DVPDLQSVCSCTCYRSQDYGGLSV,3.27
22,DVPDLQSVCSCTCYRSQDYGGHSV,2.43
23,DVPDLQSVCSCTCYRSQDYGGESV,3.3
24,DVPDLQSVCSCTCYRSQDYGGWSV,2.4

row,Variant,protein stability index
1,DVPDLQSVCSCTCYRSQDYGGDSV,3.58
2,DVPDLQSVCSCTCYRSQDYGGMSV,2.04
3,DVPDLQSVCSCTCYRSQDYGGKSV,3.06
4,DVPDLQSVCSCTCYRSQDYGGPSV,2.16
5,DVPDLQSVCSCTCYRSQDYGGGSV,2.06
6,DVPDLQSVCSCTCYRSQDYGGYSV,1.47
7,DVPDLQSVCSCTCYRSQDYGGFSV,1.33
8,DVPDLQSVCSCTCYRSQDYGKRSV,1.9
9,DVPDLQSVCSCTCYRSQDYGARSV,1.85
10,DVPDLQSVCSCTCYRSQDYGRRSV,1.62
11,DVPDLQSVCSCTCYRSQDYGDRSV,2.22
12,DVPDLQSVCSCTCYRSQDYGLRSV,1
13,DVPDLQSVCSCTCYRSQDYGTRSV,2.63
14,DVPDLQSVCSCTCYRSQDYGSRSV,3.41
15,DVPDLQSVCSCTCYRSQDYGHRSV,1.9
16,DVPDLQSVCSCTCYRSQDYGFRSV,1.81
17,DVPDLQSVCSCTCYRSQDYGQRSV,1.4
18,DVPDLQSVCSCTCYRSQDYGPRSV,2.06
19,DVPDLQSVCSCTCYRSQDYGYRSV,2.08
20,DVPDLQSVCSCTCYRSQDYGVRSV,2.16
21,DVPDLQSVCSCTCYRSQDYGGRDV,2.1
22,DVPDLQSVCSCTCYRSQDYGGRHV,1.67
23,DVPDLQSVCSCTCYRSQDYGGRAV,1.8
24,DVPDLQSVCSCTCYRSQDYGGRFV,2.11

row,Variant,protein stability index
1,DVPDLQSVCSCTCYRSQDYGGRKV,4.09
2,DVPDLQSVCSCTCYRSQDYGGRCV,1.98
3,DVPDLQSVCSCTCYRSQDYGGRIV,3.17
4,DVPDLQSVCSCTCYRSQDYGGRGV,2.96
5,DVPDLQSVCSCTCYRSQDYGGRNV,2.14
6,DVPDLQSVCSCTCYRSQDYGGRLV,2.27
7,DVPDLQSVCSCTCYRSQCYGGRSV,1.97
8,DVPDLQSVCSCTCYRSQNYGGRSV,2.08
9,DVPDLQSVCSCTCYRSQFYGGRSV,1.2
10,DVPDLQSVCSCTCYRSQMYGGRSV,1.63
11,DVPDLQSVCSCTCYRSQHYGGRSV,2.85
12,DVPDLQSVCSCTCYRSQKYGGRSV,1.65
13,DVPDLQSVCSCTCYRSQYYGGRSV,1.56
14,DVPDLQSVCSCTCYRSQRYGGRSV,1.36
15,DVPDLQSVCSCTCYRSQSYGGRSV,2.33
16,DVPDLQSVCSCTCYRSQWYGGRSV,1.61
17,DVPDLQSVCSCTCYRSQTYGGRSV,1.83
18,DVPDLQSVCSCTCYRSQLYGGRSV,1.73
19,DVPDLQSVCSCTCYRSQEYGGRSV,1.21
20,DVPDLQSVCSCTCYRSQQYGGRSV,1.51
21,DVPDLQSVCSCTCYRSQPYGGRSV,1.67
22,DVPDLQSVCSCTCYRSQVYGGRSV,1.82
